We go through 25 substances from publication PMC3888415.

Where two headings read alike, the source gives them in different places.

For test [1], the target named is human α-thrombin (human). In words: discontinuous thrombin inhibition assay (second order rate constant k2); pseudo first order conditions; purified API proteins and thrombin; mean ± SD of 5 determinations.
The target in test [2] is human α-thrombin (human). In words: ELISA; thrombin capture assay: thrombin (5 µg/ml) coated on microtiter wells in PBS; cleared bacterial lysates applied neat for one hour; detected with HRP-conjugated sheep anti-human API; OD 450 nm, for P7–P3 variants normalized to API M358R lysate. In general terms: ELISA stands for enzyme-linked immunosorbent assay.
In test [3] the target is human α-thrombin (human). The test is described as above. The source holds these as a separate data set.

In the test with human α-thrombin (human) [1], “API M358R P7–P3 variant AAFVS (from UniProt P01009 25-418)” registered a k2 (second order rate constant of thrombin inhibition) (mol^−1 sec^−1) of 1.01e+06. The same substance returned a relative OD450 versus API M358R with human α-thrombin (human) [2] of 3.01.

With “API M358R P7–P3 variant DAFAA (from UniProt P01009 25-418)”, the relative OD450 versus API M358R in the test with human α-thrombin (human) [2] was found to be 1.59.

In the test with human α-thrombin (human) [1], “API M358R P7–P3 variant DITMA (from UniProt P01009 25-418)” yielded a k2 (second order rate constant of thrombin inhibition) (mol^−1 sec^−1) of 1e+06. The results for the relative OD450 versus API M358R in the test with human α-thrombin (human) [2] and with human α-thrombin (human) [3] were 1.64 and 1.7, respectively.

Turning to “API M358R P7–P3 variant DLTVS (plaque consensus) (from UniProt P01009 25-418)”, the k2 (second order rate constant of thrombin inhibition) (mol^−1 sec^−1) in the test with human α-thrombin (human) [1] was 529000.

Regarding “API M358R P7–P3 variant DVTVS (from UniProt P01009 25-418)”, in the test with human α-thrombin (human) [2], the relative OD450 versus API M358R was found to be 1.42.

In the test with human α-thrombin (human) [2], “API M358R P7–P3 variant EAHFR (from UniProt P01009 25-418)” returned a relative OD450 versus API M358R of 1.51.

Take “API M358R P7–P3 variant EATVS (from UniProt P01009 25-418)”: the k2 (second order rate constant of thrombin inhibition) (mol^−1 sec^−1) in the test with human α-thrombin (human) [1] was determined as 617000. Moreover, in the test with human α-thrombin (human) [2], the relative OD450 versus API M358R stood at 1.54.

As for “API M358R P7–P3 variant EISLQ (from UniProt P01009 25-418)”, the k2 (second order rate constant of thrombin inhibition) (mol^−1 sec^−1) in the test with human α-thrombin (human) [1] amounted to 783000. In the test with human α-thrombin (human) [2], this substance yielded a relative OD450 versus API M358R of 2.61.

“API M358R P7–P3 variant FHTLG (from UniProt P01009 25-418)” yielded a relative OD450 versus API M358R in the test with human α-thrombin (human) [2] of 2.13.

“API M358R P7–P3 variant HATVS (from UniProt P01009 25-418)”: the k2 (second order rate constant of thrombin inhibition) (mol^−1 sec^−1) with human α-thrombin (human) [1] came out at 504000. In the test with human α-thrombin (human) [2], this substance returned a relative OD450 versus API M358R of 1.99.

On to “API M358R P7–P3 variant ISSAN (from UniProt P01009 25-418)”, for which the relative OD450 versus API M358R with human α-thrombin (human) [2] came to 1.46.

“API M358R P7–P3 variant LAITS (from UniProt P01009 25-418)” yielded a relative OD450 versus API M358R with human α-thrombin (human) [2] of 1.45.

Consider “API M358R P7–P3 variant LASMR (from UniProt P01009 25-418)”, for which, in the test with human α-thrombin (human) [1], the k2 (second order rate constant of thrombin inhibition) (mol^−1 sec^−1) was 895000. For the same substance, the relative OD450 versus API M358R with human α-thrombin (human) [2] worked out at 1.89.

In turn, “API M358R P7–P3 variant LATVS (lysate consensus) (from UniProt P01009 25-418)” yielded a k2 (second order rate constant of thrombin inhibition) (mol^−1 sec^−1) with human α-thrombin (human) [1] of 765000. Also, the relative OD450 versus API M358R in the test with human α-thrombin (human) [3] stood at 1.5.

“API M358R P7–P3 variant LHTLG (from UniProt P01009 25-418)” came in with a k2 (second order rate constant of thrombin inhibition) (mol^−1 sec^−1) in the test with human α-thrombin (human) [1] of 786000. This substance yielded a relative OD450 versus API M358R with human α-thrombin (human) [3] of 2.1.

In the case of “API M358R P7–P3 variant LINPI (from UniProt P01009 25-418)”, the relative OD450 versus API M358R in the test with human α-thrombin (human) [2] is 1.54.

Turning to “API M358R P7–P3 variant LSELA (from UniProt P01009 25-418)”, in the test with human α-thrombin (human) [2], the relative OD450 versus API M358R was 1.28.

In the test with human α-thrombin (human) [1], “API M358R P7–P3 variant LTTLR (from UniProt P01009 25-418)” displayed a k2 (second order rate constant of thrombin inhibition) (mol^−1 sec^−1) of 896000. Further, the relative OD450 versus API M358R in the test with human α-thrombin (human) [2] worked out at 2.09.

Turning to “API M358R P7–P3 variant NLIPT (from UniProt P01009 25-418)”, in the test with human α-thrombin (human) [1], the k2 (second order rate constant of thrombin inhibition) (mol^−1 sec^−1) was determined as 176000.

In the test with human α-thrombin (human) [1], “API M358R P7–P3 variant QATFL (from UniProt P01009 25-418)” displayed a k2 (second order rate constant of thrombin inhibition) (mol^−1 sec^−1) of 593000. In the test with human α-thrombin (human) [2], the relative OD450 versus API M358R came to 1.91.

In turn, “API M358R P7–P3 variant QVKPA (from UniProt P01009 25-418)” yielded a relative OD450 versus API M358R with human α-thrombin (human) [2] of 1.37.

Substance “API M358R P7–P3 variant TLSAV (from UniProt P01009 25-418)” returned a relative OD450 versus API M358R in the test with human α-thrombin (human) [2] of 1.36.

“API M358R P7–P3 variant TVSVS (from UniProt P01009 25-418)” came in with a relative OD450 versus API M358R in the test with human α-thrombin (human) [2] of 1.49.

In turn, “API M358R P7–P3 variant VTTIT (from UniProt P01009 25-418)” returned a relative OD450 versus API M358R with human α-thrombin (human) [2] of 1.9.

For “recombinant hexahistidine-tagged API M358R (from UniProt P01009 25-418) (natural protein)”, the k2 (second order rate constant of thrombin inhibition) (mol^−1 sec^−1) in the test with human α-thrombin (human) [1] turned out to be 487000.
